Experimental data published in patent US20210388087A1 (Chugai, published 2021).
Positions count from the first letter of the chain named. In names and notes the source's numbering stands.

B1: CE115HA000 T28S one-arm antibody (antibody, human IgG1, kappa, L234A L235A, N297A, name in Kabat numbering)
heavy: QVQLVESGGGVVQPGRSLRLSCAASGFSFSNAWMHWVRQAPGKGLEWVAQIKAKSNNYATYYAESVKGRFTISRDDSKNSLYLQMNSLKTEDTAVYYCRYVHYGAYYGVDAWGQGTTVTVSSASTKGPSVFPLAPSSKSTSGGTAALGCLVKDYFPEPVTVSWNSGALTSGVHTFPAVLQSSGLYSLSSVVTVPSSSLGTQTYICNVNHKPSNTKVDKKVEPKSCDKTHTCPPCPAPEAAGGPSVFLFPPKPKDTLMISRTPEVTCVVVDVSHEDPEVKFNWYVDGVEVHNAKTKPREEQYASTYRVVSVLTVLHQDWLNGKEYKCKVSNKALPAPIEKTISKAKGQPREPQVYTLPPSRCELTKNQVSLSCAVKGFYPSDIAVEWESNGQPENNYKTTPPVLDSDGSFFLVSKLTVDKSRWQQGNVFSCSVMHEALHNHYTQKSLSLSPDYKDDDDK
chain: EPKSSDKTHTCPPCPAPELLGGPSVFLFPPKPKDTLMISRTPEVTCVVVDVSHEDPEVKFNWYVDGVEVHNAKTKPREEQYNSTYRVVSVLTVLHQDWLNGKEYKCKVSNKALPAPIEKTISKAKGQPREPQVCTLPPSRDELTKNQVSLWCLVKGFYPSDIAVEWESNGQPENNYKTTPPVLDSDGSFFLYSKLTVDKSRWQQGNVFSCSVMHEALHNRYTQKSLSLSP
light: DIVMTQSPLSLPVTPGEPASISCRSSQSLVHSNRNTYLHWYQQKPGQAPRLLIYKVSNRFSGVPDRFSGSGSGTDFTLKISRVEAEDVGVYYCGQGTQVPYTFGQGTKLEIKRTVAAPSVFIFPPSDEQLKSGTASVVCLLNNFYPREAKVQWKVDNALQSGNSQESVTEQDSKDSTYSLSSTLTLSKADYEKHKVYACEVTHQGLSSPVTKSFNRGEC
B2: CE115HA000 T57A one-arm antibody (antibody, human IgG1, kappa, L234A L235A, N297A, name in Kabat numbering)
heavy: B1 heavy with S28T, T60A
chain: B1 chain
light: B1 light
B3: CE115HA000 T57I one-arm antibody (antibody, human IgG1, kappa, L234A L235A, N297A, name in Kabat numbering)
heavy: B1 heavy with S28T, T60I
chain: B1 chain
light: B1 light
B4: CE115HA000 T57K one-arm antibody (antibody, human IgG1, kappa, L234A L235A, N297A, name in Kabat numbering)
heavy: B1 heavy with S28T, T60K
chain: B1 chain
light: B1 light
B5: CE115HA000 T57N one-arm antibody (antibody, human IgG1, kappa, L234A L235A, N297A, name in Kabat numbering)
heavy: B1 heavy with S28T, T60N
chain: B1 chain
light: B1 light
B6: CE115HA000 V11L one-arm antibody (antibody, human IgG1, kappa, L234A L235A, N297A, name in Kabat numbering)
heavy: B1 heavy with V11L, S28T
chain: B1 chain
light: B1 light
B7: CE115HA000 V95A one-arm antibody (antibody, human IgG1, kappa, L234A L235A, N297A, name in Kabat numbering)
heavy: B1 heavy with S28T, V101A
chain: B1 chain
light: B1 light
B8: CE115HA000 V95D one-arm antibody (antibody, human IgG1, kappa, L234A L235A, N297A, name in Kabat numbering)
heavy: B1 heavy with S28T, V101D
chain: B1 chain
light: B1 light
B9: CE115HA000 V95E one-arm antibody (antibody, human IgG1, kappa, L234A L235A, N297A, name in Kabat numbering)
heavy: B1 heavy with S28T, V101E
chain: B1 chain
light: B1 light
B10: CE115HA000 V95G one-arm antibody (antibody, human IgG1, kappa, L234A L235A, N297A, name in Kabat numbering)
heavy: B1 heavy with S28T, V101G
chain: B1 chain
light: B1 light

Biological target: T1, CD3 epsilon homodimer protein (UniProt P07766 23-126)
T1 construct: immobilized on Sensor chip CM4 by amine coupling; also called CD3 (CD3 epsilon)
Assay: SPR (Biacore T200), CD3 epsilon homodimer on CM4 chip, one-arm antibody as analyte, 25 C;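 note: homodimer attached to the sensor surface via amine coupling, HBS-EP+ used as running buffer during binding runs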
Method: An appropriate amount of CD3 epsilon homodimer protein was immobilized onto Sensor chip CM4 (GE Healthcare Japan Corp.) by the amine coupling method. Then, the antibody having an appropriate concentration was injected thereto as an analyte and allowed to interact with the CD3 epsilon homodimer protein on the sensor chip. Then, the sensor chip was regenerated by the injection of 10 mmol/L glycine-HCl (pH 1.5). The assay was conducted at 25 degrees C., and HBS-EP+(GE Healthcare Japan Corp.) was used as a running buffer. […] Each parameter was calculated using Biacore T200 Evaluation Software (GE Healthcare Japan Corp.).

T1 sequence (P07766 23-126): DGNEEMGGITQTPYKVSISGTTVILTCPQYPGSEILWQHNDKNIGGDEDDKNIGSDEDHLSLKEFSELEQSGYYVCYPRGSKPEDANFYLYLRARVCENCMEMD

Row | Binder | ratio of amounts bound (altered form / CE115HA000)
1 | B1 | 0.91
2 | B2 | 0.98
3 | B3 | 0.61
4 | B4 | 1.32
5 | B5 | 0.97
6 | B6 | 1
7 | B7 | 0.11
8 | B8 | 0.24
9 | B9 | 0.24
10 | B10 | 0.19
